In the RNAGym collection of RNA variant scans (doi:10.1021/acssynbio.7b00057):

B1: Pistol ribozyme (parent)
chain: GGGUCGUUGUUCCAUAAUCGCGUGGAUAUGGCACGCAAGUUUCUACCGGGCACCGUAAAUGUCCGACUGGAGCCGUUCGGGCGGCUAUAAACAGACCUCAGGCCCGAAGCGUGGCGGCACCUGCCGCCGGUGGUAAAAAAGAUCGGAAGAGCACACGUCU

Variants of: B1
Test: aptazyme ON/OFF ratio, guanine; higher = stronger switching; co-transcriptional cleavage with and without guanine

Variant	aptazyme ON/OFF ratio
GGGUCGACGGUCAAUAAUCGCGUGGAUAUGGCACGCAAGUUUCUACCGGGCACCGUAAAUGUCCGACUGGAGCCGUUCGGGCGGCUAUAAACAGACCUCAGGCCCGAAGCGUGGCGGCACCUGCCGCCGGUGGUAAAAAAGAUCGGAAGAGCACACGUCU	1.4
GGGUCGUAGCCUCAUAAUCGCGUGGAUAUGGCACGCAAGUUUCUACCGGGCACCGUAAAUGUCCGACUGGAGCCGUUCGGGCGGCUAUAAACAGACCUCAGGCCCGAAGCGUGGCGGCACCUGCCGCCGGUGGUAAAAAAGAUCGGAAGAGCACACGUCU	1.06
GGGUCGCCAUACCAUAAUCGCGUGGAUAUGGCACGCAAGUUUCUACCGGGCACCGUAAAUGUCCGACUGGAGCCGUUCGGGCGGCUAUAAACAGACCUCAGGCCCGAAGCGUGGCGGCACCUGCCGCCGGUGGUAAAAAAGAUCGGAAGAGCACACGUCU	1.16
GGGUCGGGCCGAUAUAAUCGCGUGGAUAUGGCACGCAAGUUUCUACCGGGCACCGUAAAUGUCCGACUGGAGCCGUUCGGGCGGCUAUAAACAGACCUCAGGCCCGAAGCGUGGCGGCACCUGCCGCCGGUGGUAAAAAAGAUCGGAAGAGCACACGUCU	1.3
GGGUCGGUAAAGAAUAAUCGCGUGGAUAUGGCACGCAAGUUUCUACCGGGCACCGUAAAUGUCCGACUGGAGCCGUUCGGGCGGCUAUAAACAGACCUCAGGCCCGAAGCGUGGCGGCACCUGCCGCCGGUGGUAAAAAAGAUCGGAAGAGCACACGUCU	1.1
GGGUCGAUGCCACAUAAUCGCGUGGAUAUGGCACGCAAGUUUCUACCGGGCACCGUAAAUGUCCGACUGGAGCCGUUCGGGCGGCUAUAAACAGACCUCAGGCCCGAAGCGUGGCGGCACCUGCCGCCGGUGGUAAAAAAGAUCGGAAGAGCACACGUCU	1.1
GGGUCGUAACUGAAUAAUCGCGUGGAUAUGGCACGCAAGUUUCUACCGGGCACCGUAAAUGUCCGACUGGAGCCGUUCGGGCGGCUAUAAACAGACCUCAGGCCCGAAGCGUGGCGGCACCUGCCGCCGGUGGUAAAAAAGAUCGGAAGAGCACACGUCU	1.19
GGGUCGCAUUAGUAUAAUCGCGUGGAUAUGGCACGCAAGUUUCUACCGGGCACCGUAAAUGUCCGACUGGAGCCGUUCGGGCGGCUAUAAACAGACCUCAGGCCCGAAGCGUGGCGGCACCUGCCGCCGGUGGUAAAAAAGAUCGGAAGAGCACACGUCU	1.15
GGGUCGACAAUGAAUAAUCGCGUGGAUAUGGCACGCAAGUUUCUACCGGGCACCGUAAAUGUCCGACUGGAGCCGUUCGGGCGGCUAUAAACAGACCUCAGGCCCGAAGCGUGGCGGCACCUGCCGCCGGUGGUAAAAAAGAUCGGAAGAGCACACGUCU	1.14
GGGUCGAUGUAAGAUAAUCGCGUGGAUAUGGCACGCAAGUUUCUACCGGGCACCGUAAAUGUCCGACUGGAGCCGUUCGGGCGGCUAUAAACAGACCUCAGGCCCGAAGCGUGGCGGCACCUGCCGCCGGUGGUAAAAAAGAUCGGAAGAGCACACGUCU	1.26
GGGUCGGGUGGAAAUAAUCGCGUGGAUAUGGCACGCAAGUUUCUACCGGGCACCGUAAAUGUCCGACUGGAGCCGUUCGGGCGGCUAUAAACAGACCUCAGGCCCGAAGCGUGGCGGCACCUGCCGCCGGUGGUAAAAAAGAUCGGAAGAGCACACGUCU	1.04
GGGUCGAAUCCAAAUAAUCGCGUGGAUAUGGCACGCAAGUUUCUACCGGGCACCGUAAAUGUCCGACUGGAGCCGUUCGGGCGGCUAUAAACAGACCUCAGGCCCGAAGCGUGGCGGCACCUGCCGCCGGUGGUAAAAAAGAUCGGAAGAGCACACGUCU	1.04
GGGUCGCUCUAGCAUAAUCGCGUGGAUAUGGCACGCAAGUUUCUACCGGGCACCGUAAAUGUCCGACUGGAGCCGUUCGGGCGGCUAUAAACAGACCUCAGGCCCGAAGCGUGGCGGCACCUGCCGCCGGUGGUAAAAAAGAUCGGAAGAGCACACGUCU	1
GGGUCGUGAGUGUAUAAUCGCGUGGAUAUGGCACGCAAGUUUCUACCGGGCACCGUAAAUGUCCGACUGGAGCCGUUCGGGCGGCUAUAAACAGACCUCAGGCCCGAAGCGUGGCGGCACCUGCCGCCGGUGGUAAAAAAGAUCGGAAGAGCACACGUCU	1.27
GGGUCGUAAAGGUAUAAUCGCGUGGAUAUGGCACGCAAGUUUCUACCGGGCACCGUAAAUGUCCGACUGGAGCCGUUCGGGCGGCUAUAAACAGACCUCAGGCCCGAAGCGUGGCGGCACCUGCCGCCGGUGGUAAAAAAGAUCGGAAGAGCACACGUCU	1.29
GGGUCGCCCAACGAUAAUCGCGUGGAUAUGGCACGCAAGUUUCUACCGGGCACCGUAAAUGUCCGACUGGAGCCGUUCGGGCGGCUAUAAACAGACCUCAGGCCCGAAGCGUGGCGGCACCUGCCGCCGGUGGUAAAAAAGAUCGGAAGAGCACACGUCU	1.14
GGGUCGGAUUGAGAUAAUCGCGUGGAUAUGGCACGCAAGUUUCUACCGGGCACCGUAAAUGUCCGACUGGAGCCGUUCGGGCGGCUAUAAACAGACCUCAGGCCCGAAGCGUGGCGGCACCUGCCGCCGGUGGUAAAAAAGAUCGGAAGAGCACACGUCU	1.05
GGGUCGGAAUCUGAUAAUCGCGUGGAUAUGGCACGCAAGUUUCUACCGGGCACCGUAAAUGUCCGACUGGAGCCGUUCGGGCGGCUAUAAACAGACCUCAGGCCCGAAGCGUGGCGGCACCUGCCGCCGGUGGUAAAAAAGAUCGGAAGAGCACACGUCU	1.29
